This assay has as its target MAPKAP Kinase II (MK2).
Consider KALNRQLGdVAA (peptide), for which the % of … [SEQ ID NO: 124] Reaction Velocity at an Inhibitor Concentration of 100 µM is 260%. Substance KALNRQdLGVAA (peptide) returned a % of … [SEQ ID NO: 124] Reaction Velocity at an Inhibitor Concentration of 100 µM of 357%. In the case of KALNRdQLGVAA (peptide) it was 276%; in that of KALNdRQLGVAA (peptide), 306%; in that of KALdNRQLGVAA (peptide), 95%.

The values are drawn from US9447158B2.
